These results are taken from PMC8983781.

In assay [1] the target is SP-C L188Q with the site 2 mutations (human) (UniProt P11686). As to the kind of experiment: co-IP; 293T cells co-transfected with an SP-C construct and one co-chaperone (BiP co-transfected in the GRP170 experiments; 20 mM NEM in wash and lysis for ERdj5); NP-40 lysates 24 h after transfection, immunoprecipitated with anti-SP-C overnight at 4 °C, Protein A agarose, washed with buffer containing 0.4 M NaCl; co-chaperones detected by western blot; in Fig. 4 signals normalised to SP-C and expressed as percent of parental L188Q.

Assay [2] concerns the target 3HA-tagged SP-C L188Q (human) (UniProt P11686).
Substrate in assay [3]: SP-C L188Q with the site 2 mutations (human) (UniProt P11686)
As to the kind of experiment: co-IP; 293T cells co-transfected with an SP-C construct and one co-chaperone (BiP co-transfected in the GRP170 experiments; 20 mM NEM in wash and lysis for ERdj5); NP-40 lysates 24 h after transfection, immunoprecipitated with anti-SP-C overnight at 4 °C, Protein A agarose, washed with buffer containing 0.4 M NaCl; co-chaperones detected by western blot; in Fig. 4 signals normalised to SP-C and expressed as percent ….

For the molecule “ERdj4-3HA (mouse) (from UniProt Q9QYI6 24-222) (natural protein)”, in assay [1], the percent reduction of binding against parental L188Q worked out at 70%.
In turn, “wild-type surfactant protein C (SP-C) proprotein, untagged (from UniProt P11686 1-58) (natural protein)” returned a percent of wild-type SP-C that is palmitoylated (a measure of transport to the Golgi) when co-expressed with the L188Q mutant; 17.6% when expressed alone in assay [2] of 10%.

B1: GRP170 (human) (natural protein)
chain: LAVMSVDLGSESMKVAIVKPGVPMEIVLNKESRRKTPVIVTLKENERFFGDSAASMAIKNPKATLRYFQHLLGKQADNPHVALYQARFPEHELTFDPQRQTVHFQISSQLQFSPEEVLGMVLNYSRSLAEDFAEQPIKDAVITVPVFFNQAERRAVLQAARMAGLKVLQLINDNTATALSYGVFRRKDINTTAQNIMFYDMGSGSTVCTIVTYQMVKTKEAGMQPQLQIRGVGFDRTLGGLEMELRLRERLAGLFNEQRKGQRAKDVRENPRAMAKLLREANRLKTVLSANADHMAQIEGLMDDVDFKAKVTRVEFEELCADLFERVPGPVQQALQSAEMSLDEIEQVILVGGATRVPRVQEVLLKAVGKEELGKNINADEAAAMGAVYQAAALSKAFKVKPFVVRDAVVYPILVEFTREVEEEPGIHSLKHNKRVLFSRMGPYPQRKVITFNRYSHDFNFHINYGDLGFLGPEDLRVFGSQNLTTVKLKGVGDSFKKYPDYESKGIKAHFNLDESGVLSLDRVESVFETLVEDSAEEESTLTKLGNTISSLFGGGTTPDAKENGTDTVQEEEESPAEGSKDEPGEQVELKEEAEAPVEDGSQPPPPEPKGDATPEGEKATEKENGDKSEAQKPSEKAEAGPEGVAPAPEGEKKQKPARKRRMVEEIGVELVVLDLPDLPEDKLAQSVQKLQDLTLRDLEKQEREKAANSLEAFIFETQDKLYQPEYQEVSTEEQREEISGKLSAASTWLEDEGVGATTVMLKEKLAELRKLCQGLFFRVEERKKWPERLSALDNLLNHSSMFLKGARLIPEMDQIFTEVEMTTLEKVINETWAWKNATLAEQAKLPATEKPVLLSKDIEAKMMALDREVQYLLNKAKFTKPRPRPKDKNGTRAEPPLNASASDQGEKVIPPAGQTEDAEPISEPEKVETGSEPGDTEPLELGGPGAEPEQKEQSTGQKRPLKNDEL
With B1, in assay [3], the percent of the binding to parental L188Q was found to be 30%.

B2: ERdj5 (mouse) (natural protein)
chain: DQNFYSLLGVSKTASSREIRQAFKKLALKLHPDKNPNNPNAHGDFLKINRAYEVLKDEDLRKKYDKYGEKGLEDNQGGQYESWSYYRYDFGIYDDDPEIITLERREFDAAVNSGELWFVNFYSPGCSHCHDLAPTWREFAKEVDGLLRIGAVNCGDDRMLCRMKGVNSYPSLFIFRSGMAAVKYNGDRSKESLVAFAMQHVRSTVTELSTGNFVNAIETAFAAGVGWLITFCSKGEDCLTSQTRLRLSGMLDGLVNVGWVDCDAQDSLCKSLDTTASTTAYFPPGATLNDREKSSVLFLNSLDAKEIYMEIIHNLPDFELLSANQLEDRLAHHRWLVFFHFGKNENANDPELKKLKTLLKNEHIQVGRFDCSSAPGICSDLYVFQPCLAVFKGQGTKEYEIHHGKKILYDILAFAKESVNSHVTTLGPQNFPASDKEPWLVDFFAPWCPPCRALLPELRKASTLLYGQLKVGTLDCTIHEGLCNMYNIQAYPTTVVFNQSSIHEYEGHHSAEQILEFIEDLRNPSVVSLTPSTFNELVKQRKHDEVWMVDFYSPWCHPCQVLMPEWKRMARTLTGLINVGSVDCQQYHSFCTQENVQRYPEIRFYPQKSSKAYQYHSYNGWNRDAYSLRSWGLGFLPQASIDLTPQTFNEKVLQGKTHWVVDFYAPWCGPCQNFAPEFELLARMIKGKVRAGKVDCQAYPQTCQKAGIKAYPSVKLYQYERAKKSIWEEQINSRDAKTIAALIYGKLETLQSQVKRNKDEL
As to B2, in assay [3], the percent reduction of binding against parental L188Q was found to be 30%.
